From the supplement of paper PMC10065799, “High-throughput profiling of sequence recognition by tyrosine kinases and SH2 domains using bacterial peptide display” (eLife, 2023)

Target: EPHB1 (UniProt P54762)
Test: phosphorylation enrichment, bacterial display (enrichment ratio); higher = better substrate or ligand; peptides without Tyr show the background
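For SH2 binding enrichment of the phosphorylated peptide, bacterial display in this document: peptide library displayed on the E. coli surface as eCPX fusions, selected cells deep-sequenced, score is each peptide's frequency after selection divided by its frequency in the input.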
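For phosphorylation enrichment, bacterial display in this document: 11-residue human phosphosite peptides and single-mutation variants displayed on the E. coli surface, counted by deep sequencing, each peptide's frequency after selection divided by its frequency in the unselected input library; frequency after pTyr selection over input frequency; kinase dosed for 20-30% of maximal phosphorylation in three min.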

Chain of EPHB1 (P54762 whole entry, looked up): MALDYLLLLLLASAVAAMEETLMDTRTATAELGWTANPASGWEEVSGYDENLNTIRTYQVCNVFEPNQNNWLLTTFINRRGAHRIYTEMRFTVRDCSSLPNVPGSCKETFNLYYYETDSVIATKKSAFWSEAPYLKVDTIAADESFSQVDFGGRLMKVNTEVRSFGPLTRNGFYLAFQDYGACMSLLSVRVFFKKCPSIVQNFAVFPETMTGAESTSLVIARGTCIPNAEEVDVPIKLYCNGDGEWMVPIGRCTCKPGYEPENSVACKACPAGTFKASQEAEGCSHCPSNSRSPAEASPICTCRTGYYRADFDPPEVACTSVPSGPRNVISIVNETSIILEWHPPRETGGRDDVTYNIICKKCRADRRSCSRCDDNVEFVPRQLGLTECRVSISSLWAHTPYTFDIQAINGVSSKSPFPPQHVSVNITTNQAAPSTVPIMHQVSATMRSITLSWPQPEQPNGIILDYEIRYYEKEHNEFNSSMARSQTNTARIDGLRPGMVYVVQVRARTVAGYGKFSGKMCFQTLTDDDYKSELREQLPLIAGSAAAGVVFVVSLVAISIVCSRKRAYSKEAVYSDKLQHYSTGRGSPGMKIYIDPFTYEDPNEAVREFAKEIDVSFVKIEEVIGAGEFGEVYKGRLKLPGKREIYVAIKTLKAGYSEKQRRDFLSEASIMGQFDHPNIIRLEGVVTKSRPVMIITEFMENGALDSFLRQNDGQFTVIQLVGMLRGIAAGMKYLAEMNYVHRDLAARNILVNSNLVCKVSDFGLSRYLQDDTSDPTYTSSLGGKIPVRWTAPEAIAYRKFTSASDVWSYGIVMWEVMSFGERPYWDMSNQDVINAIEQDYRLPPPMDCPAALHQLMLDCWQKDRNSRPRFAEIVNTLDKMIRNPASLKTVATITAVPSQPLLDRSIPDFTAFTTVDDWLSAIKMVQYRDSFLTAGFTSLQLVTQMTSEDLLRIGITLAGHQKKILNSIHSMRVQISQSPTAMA

Row | Sequence | phosphorylation enrichment
1 | EALDFCGEVRT [PTEN_Y155_Y155C] | 0.882
2 | AIIEEYLHLND [EIF4G1_Y1253] | 0.564
3 | HLMLQYDAVVN [SLC25A32_Y152_R147H] | 0.93
4 | RKGGSYSQAAS [HLA-A_Y344_T345S] | 0.498
5 | LRGEDYGFSVD [PRKCI_Y430] | 0.686
6 | RHLREYQDLLN [DES_Y388] | 0.621
7 | RTLSEYARRHV [RERE_Y1259_P1262R] | 0.353
8 | LKKKQYTSIHH [APP_Y728] | 0.739
9 | SPFAVYLFFTF [RPGRIP1_Y826_R827L_YF] | 0.434
10 | DCAAIYGNEPE [AKR1A1_Y50] | 0.612
11 | MAYDRYAAICS [OR8H2_Y123_H120Y] | 0.699
12 | RGVTRYIFNRE [HLA-DQB1_Y62_Y58G_YF] | 1
13 | YQLENCCNGGG [INS_Y108_Y108C] | 1.05
14 | NYNPNYCFAGK [ALK_Y1096_D1091N] | 3.98
15 | IWDLKYTIENP [SND1_Y178_R174W] | 0.593
16 | AVLQPYIFVAT [CFTR_Y1014] | 0.84
17 | SLALFYRNVFH [RBL1_Y792_K794N_YF] | 0.573

Row | Sequence | phosphorylation enrichment
18 | RFGKVYKAHLF [ROR2_Y488_G490A] | 0.476
19 | VHNLDYFKKTT [FGFR3_Y647_YF] | 0.512
20 | EAKENYGKTLK [CHL1_Y291_T287A] | 0.348
21 | EDASEYFENFI [PARP4_Y214_F215Y_YF] | 0.798
22 | GFFDLYGGEKF [PTPN11_Y66_D61G_YF] | 0.603
23 | ESFRLYPPVPQ [CYP4B1_Y377] | 0.416
24 | NTQRPHYKGGG [TYROBP_Y111_Y111H] | 0.326
25 | LSSETYVKSFT [F5_Y2149_M2148T_YF] | 0.789
26 | MKSIKYMDKEI [CCDC60_Y41] | 0.399
27 | RSSGGYEPRGC [FUS_Y239_R244C] | 0.227
28 | ESLRRYLENGK [HLA-B_Y195_W191S] | 0.431
29 | FGGLRYGFGGL [KRTAP20-2_Y13_V17G_YF] | 0.445
30 | DTERIYDDDFF [UBA1_Y560] | 0.661
31 | IKETHYMVDKC | 0.447
32 | ENPLDYGSAWA [AR_Y395] | 0.46
33 | ENELTYFCCKK [CD59_Y86_YF] | 0.465

Target: SHP2-C SH2
Test: SH2 binding enrichment of the phosphorylated peptide, bacterial display (enrichment ratio); higher = better substrate or ligand; peptides without Tyr show the background

Row | Sequence | SH2 binding enrichment
34 | EALDFCGEVRT [PTEN_Y155_Y155C] | 0.645
35 | AIIEEYLHLND [EIF4G1_Y1253] | 0.855
36 | HLMLQYDAVVN [SLC25A32_Y152_R147H] | 0.725
37 | RKGGSYSQAAS [HLA-A_Y344_T345S] | 0.836
38 | LRGEDYGFSVD [PRKCI_Y430] | 0.675
39 | RHLREYQDLLN [DES_Y388] | 0.872
40 | RTLSEYARRHV [RERE_Y1259_P1262R] | 0.567
41 | LKKKQYTSIHH [APP_Y728] | 2.63
42 | SPFAVYLFFTF [RPGRIP1_Y826_R827L_YF] | 0.729
43 | DCAAIYGNEPE [AKR1A1_Y50] | 0.689
44 | MAYDRYAAICS [OR8H2_Y123_H120Y] | 0.956
45 | RGVTRYIFNRE [HLA-DQB1_Y62_Y58G_YF] | 0.512
46 | YQLENCCNGGG [INS_Y108_Y108C] | 0.666
47 | NYNPNYCFAGK [ALK_Y1096_D1091N] | 0.878
48 | IWDLKYTIENP [SND1_Y178_R174W] | 0.755
49 | AVLQPYIFVAT [CFTR_Y1014] | 0.545
50 | SLALFYRNVFH [RBL1_Y792_K794N_YF] | 0.873

Row | Sequence | SH2 binding enrichment
51 | RFGKVYKAHLF [ROR2_Y488_G490A] | 0.668
52 | VHNLDYFKKTT [FGFR3_Y647_YF] | 0.678
53 | EAKENYGKTLK [CHL1_Y291_T287A] | 0.503
54 | EDASEYFENFI [PARP4_Y214_F215Y_YF] | 0.544
55 | GFFDLYGGEKF [PTPN11_Y66_D61G_YF] | 0.832
56 | ESFRLYPPVPQ [CYP4B1_Y377] | 0.713
57 | NTQRPHYKGGG [TYROBP_Y111_Y111H] | 1.77
58 | LSSETYVKSFT [F5_Y2149_M2148T_YF] | 0.74
59 | MKSIKYMDKEI [CCDC60_Y41] | 0.525
60 | RSSGGYEPRGC [FUS_Y239_R244C] | 0.872
61 | ESLRRYLENGK [HLA-B_Y195_W191S] | 0.473
62 | FGGLRYGFGGL [KRTAP20-2_Y13_V17G_YF] | 0.762
63 | DTERIYDDDFF [UBA1_Y560] | 0.611
64 | IKETHYMVDKC | 0.68
65 | ENPLDYGSAWA [AR_Y395] | 0.806
66 | ENELTYFCCKK [CD59_Y86_YF] | 0.935

Target: c-Src SH2
Test: as above

Row | Sequence | SH2 binding enrichment
67 | EALDFCGEVRT [PTEN_Y155_Y155C] | 0.534
68 | AIIEEYLHLND [EIF4G1_Y1253] | 0.446
69 | HLMLQYDAVVN [SLC25A32_Y152_R147H] | 2.42
70 | RKGGSYSQAAS [HLA-A_Y344_T345S] | 0.542
71 | LRGEDYGFSVD [PRKCI_Y430] | 0.42
72 | RHLREYQDLLN [DES_Y388] | 2.29
73 | RTLSEYARRHV [RERE_Y1259_P1262R] | 0.448
74 | LKKKQYTSIHH [APP_Y728] | 1.89
75 | SPFAVYLFFTF [RPGRIP1_Y826_R827L_YF] | 0.519
76 | DCAAIYGNEPE [AKR1A1_Y50] | 0.72
77 | MAYDRYAAICS [OR8H2_Y123_H120Y] | 2.79
78 | RGVTRYIFNRE [HLA-DQB1_Y62_Y58G_YF] | 0.494
79 | YQLENCCNGGG [INS_Y108_Y108C] | 0.972
80 | NYNPNYCFAGK [ALK_Y1096_D1091N] | 0.55
81 | IWDLKYTIENP [SND1_Y178_R174W] | 0.467
82 | AVLQPYIFVAT [CFTR_Y1014] | 0.329
83 | SLALFYRNVFH [RBL1_Y792_K794N_YF] | 0.518

Row | Sequence | SH2 binding enrichment
84 | RFGKVYKAHLF [ROR2_Y488_G490A] | 0.613
85 | VHNLDYFKKTT [FGFR3_Y647_YF] | 0.406
86 | EAKENYGKTLK [CHL1_Y291_T287A] | 0.432
87 | EDASEYFENFI [PARP4_Y214_F215Y_YF] | 0.436
88 | GFFDLYGGEKF [PTPN11_Y66_D61G_YF] | 0.564
89 | ESFRLYPPVPQ [CYP4B1_Y377] | 0.464
90 | NTQRPHYKGGG [TYROBP_Y111_Y111H] | 1.01
91 | LSSETYVKSFT [F5_Y2149_M2148T_YF] | 0.587
92 | MKSIKYMDKEI [CCDC60_Y41] | 0.405
93 | RSSGGYEPRGC [FUS_Y239_R244C] | 0.509
94 | ESLRRYLENGK [HLA-B_Y195_W191S] | 0.436
95 | FGGLRYGFGGL [KRTAP20-2_Y13_V17G_YF] | 0.601
96 | DTERIYDDDFF [UBA1_Y560] | 0.599
97 | IKETHYMVDKC | 0.525
98 | ENPLDYGSAWA [AR_Y395] | 0.454
99 | ENELTYFCCKK [CD59_Y86_YF] | 0.711

Target: Grb2 SH2 (UniProt P62993)
Sequence (P62993 whole entry, looked up): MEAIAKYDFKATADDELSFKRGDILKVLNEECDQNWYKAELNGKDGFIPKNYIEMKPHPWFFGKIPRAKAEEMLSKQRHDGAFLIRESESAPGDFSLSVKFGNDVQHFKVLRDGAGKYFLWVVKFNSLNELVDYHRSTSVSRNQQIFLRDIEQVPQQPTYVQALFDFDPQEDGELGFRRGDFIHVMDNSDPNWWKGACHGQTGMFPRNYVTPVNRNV
Test: as above

Row | Sequence | SH2 binding enrichment
100 | EALDFCGEVRT [PTEN_Y155_Y155C] | 1.07
101 | AIIEEYLHLND [EIF4G1_Y1253] | 0.763
102 | HLMLQYDAVVN [SLC25A32_Y152_R147H] | 1.01
103 | RKGGSYSQAAS [HLA-A_Y344_T345S] | 0.95
104 | LRGEDYGFSVD [PRKCI_Y430] | 0.697
105 | RHLREYQDLLN [DES_Y388] | 1.25
106 | RTLSEYARRHV [RERE_Y1259_P1262R] | 0.826
107 | LKKKQYTSIHH [APP_Y728] | 1.53
108 | SPFAVYLFFTF [RPGRIP1_Y826_R827L_YF] | 1.09
109 | DCAAIYGNEPE [AKR1A1_Y50] | 0.966
110 | MAYDRYAAICS [OR8H2_Y123_H120Y] | 0.852
111 | RGVTRYIFNRE [HLA-DQB1_Y62_Y58G_YF] | 0.821
112 | YQLENCCNGGG [INS_Y108_Y108C] | 0.747
113 | NYNPNYCFAGK [ALK_Y1096_D1091N] | 0.868
114 | IWDLKYTIENP [SND1_Y178_R174W] | 1.06
115 | AVLQPYIFVAT [CFTR_Y1014] | 0.65
116 | SLALFYRNVFH [RBL1_Y792_K794N_YF] | 0.892

Row | Sequence | SH2 binding enrichment
117 | RFGKVYKAHLF [ROR2_Y488_G490A] | 1.03
118 | VHNLDYFKKTT [FGFR3_Y647_YF] | 0.782
119 | EAKENYGKTLK [CHL1_Y291_T287A] | 0.754
120 | EDASEYFENFI [PARP4_Y214_F215Y_YF] | 0.812
121 | GFFDLYGGEKF [PTPN11_Y66_D61G_YF] | 0.995
122 | ESFRLYPPVPQ [CYP4B1_Y377] | 0.829
123 | NTQRPHYKGGG [TYROBP_Y111_Y111H] | 1.44
124 | LSSETYVKSFT [F5_Y2149_M2148T_YF] | 0.798
125 | MKSIKYMDKEI [CCDC60_Y41] | 0.797
126 | RSSGGYEPRGC [FUS_Y239_R244C] | 0.913
127 | ESLRRYLENGK [HLA-B_Y195_W191S] | 0.813
128 | FGGLRYGFGGL [KRTAP20-2_Y13_V17G_YF] | 0.903
129 | DTERIYDDDFF [UBA1_Y560] | 0.836
130 | IKETHYMVDKC | 0.684
131 | ENPLDYGSAWA [AR_Y395] | 0.716
132 | ENELTYFCCKK [CD59_Y86_YF] | 0.975
